The target in this experiment is GATOR2 purified from HEK293T cells (UniProt Q9NXC5 1-875; Q6PJI9 1-974; Q96S15 1-790; Q96EE3 1-360; P55735 1-322). Nature of the experiment: pull-down.

B1: GST-Sesn2 (natural protein, UniProt P58004 1-480, looked up)
chain: MIVADSECRAELKDYLRFAPGGVGDSGPGEEQRESRARRGPRGPSAFIPVEEVLREGAESLEQHLGLEALMSSGRVDNLAVVMGLHPDYFTSFWRLHYLLLHTDGPLASSWRHYIAIMAAARHQCSYLVGSHMAEFLQTGGDPEWLLGLHRAPEKLRKLSEINKLLAHRPWLITKEHIQALLKTGEHTWSLAELIQALVLLTHCHSLSSFVFGCGILPEGDADGSPAPQAPTPPSEQSSPPSRDPLNNSGGFESARDVEALMERMQQLQESLLRDEGTSQEEMESRFELEKSESLLVTPSADILEPSPHPDMLCFVEDPTFGYEDFTRRGAQAPPTFRAQDYTWEDHGYSLIQRLYPEGGQLLDEKFQAAYSLTYNTIAMHSGVDTSVLRRAIWNYIHCVFGIRYDDYDYGEVNQLLERNLKVYIKTVACYPEKTTRRMYNLFWRHFRHSEKVHVNLLLLEARMQAALLYALRAITRYMT
With B1, the binding result was “binds”.

The record behind these values is PMC4303546 (Cell reports, 2014).
